{"source": "patent US9649360B2", "about": "“Pharmaceutical composition for the treatment and/or prevention of disease involving abnormal accumulation of amyloid β protein” (SHIGA UNIVERSITY OF MEDICAL SCIENCE, priority 2012, dated 2017)", "molecules": {"B1": {"name": "ILEI: interleukin-like epithelial-mesenchymal transition inducer, secretory protein, SEQ ID NO: 1 (mature: SEQ ID NO: 2) (protein, listed as Homo sapiens)", "chain": "MRVAGAAKLVVAVAVFLLTFYVISQVFEIKMDASLGNLFARSALDTAARSTKPPRYKCGISKACPEKHFAFKMASGAANVVGPKICLEDNVLMSGVKNNVGRGINVALANGKTGEVLDTKYFDMWGGDVAPFIEFLKAIQDGTIVLMGTYDDGATKLNDEARRLIADLGSTSITNLGFRDNWVFCGGKGIKTKSPFEQHIKNNKDTNKYEGWPEVVEMEGCIPQKQD"}, "B2": {"name": "ILEI-His: purified recombinant ILEI protein from the pcDNA6/V5-His construct, added from outside the cells (protein, UniProt Q92520 25-227, looked up)", "Protein FAM3C": "QVFEIKMDASLGNLFARSALDTAARSTKPPRYKCGISKACPEKHFAFKMASGAANVVGPKICLEDNVLMSGVKNNVGRGINVALANGKTGEVLDTKYFDMWGGDVAPFIEFLKAIQDGTIVLMGTYDDGATKLNDEARRLIADLGSTSITNLGFRDNWVFCGGKGIKTKSPFEQHIKNNKDTNKYEGWPEVVEMEGCIPQKQD", "modifications": "V5-His tag", "notes": "purified recombinant ILEI protein from the pcDNA6/V5-His construct, added from outside the cells"}}, "key": {"γ-secretase": {"test_system": "γ-secretase", "assay": "AICD production in transfected HEK293 cells treated with NEM (immunoblot)", "assay_type": "cell-based, human", "conditions": "NEM for 60 minutes, n=3", "experimental": "(§1) Brain homogenates were lysed in a buffer (25 mM HEPES, pH 7.5, 150 mM NaCl, 2 mM EDTA, protease inhibitor cocktail and 10% glycerol) containing 1% Nonidet P40. Immunoblotting was performed as previously described (Nishimura, M., et al. Nat Med 5, 164-169 (1999)).\nHEK293 cells transfected with control, ILEI siRNA, or ILEI cDNA (respectively denoted by ILEI-k/d and ILEI-oe in the figure) were treated with N-ethyl maleimide (NEM) for 60 minutes to block degradation of AICD. The AICD production was inhibited by a treatment with DAPT, which is a γ-secretase inhibitor (D in the figure). β-Actin was used as a loading control. The graphs show quantified AICD signal intensities (n=3)."}, "endogenous Notch-1": {"test_system": "endogenous Notch-1", "assay": "γ-secretase cleavage of endogenous Notch-1 in mouse embryonic fibroblasts (NICD immunoblot)", "assay_type": "cell-based", "conditions": "MEFs, EDTA 1.5 mM; DAPT 1 μM; n=3", "experimental": "as §1\nNext, γ-secretase cleavage of endogenous Notch-1 in mouse embryonic fibroblasts (MEFs) was examined (FIG. 1d). Treatment of MEF with EDTA (1.5 mM) induces cleavage of TMIC (transmembrane/intracellular Notch) and generates NEXT (Notch extracellular truncation). NEXT is further cleaved by γ-secretase to release NICD (Notch intracellular domain). The NICD production was inhibited by DAPT (1 μM). β-Actin was used as a loading control. The graphs show quantified NICD signal intensities (n=3)."}, "ILEI-Tg mice [1]": {"test_system": "ILEI-Tg mice", "assay": "Immunoblotting of brain homogenates of ILEI-Tg mice (APP-CTF, NICD)", "assay_type": "in vivo, mouse", "conditions": "6-week-old ILEI-Tg mice versus wild-type littermates"}, "ILEI-Tg mice [2]": {"test_system": "ILEI-Tg mice", "conditions": "mouse, in vivo"}, "ILEI-Tg mice [3]": {"test_system": "ILEI-Tg mice", "assay": "Aβ40 and Aβ42 in brain homogenate fractions of ILEI-Tg mice (ELISA)", "assay_type": "in vivo, mouse", "conditions": "Tris-buffered saline-soluble and insoluble fractions, 8 months old, n=5, versus wild-type littermates"}, "[4]": {"test_system": "stable ILEI-knockdown HEK293 cells", "assay": "Aβ secretion after adding purified ILEI-His to culture solution of stable ILEI-knockdown HEK293 cells", "assay_type": "cell-based, human", "experimental": "Using this cell culture solution, the measurement of secretory Aβ from the cells was performed according to ELISAs specific for human Aβ40 and Aβ42 (Wako Pure Chemical Industries).\nPurified ILEI-His was added into the culture solution of stable ILEI-knockdown HEK293 cells at the indicated concentration (μg ml^−1)."}}}
{"molecule": "C[C@H](NC(=O)Cc1cc(F)cc(F)c1)C(=O)N[C@H](C(=O)OC(C)(C)C)c1ccccc1", "note": "[DAPT, reference compound]", "values": [{"measurement": "AICD production", "setting": "γ-secretase", "result": "inhibited"}, {"measurement": "NICD production (Notch cleavage by γ-secretase)", "setting": "endogenous Notch-1", "result": "inhibited"}]}
{"molecule": "B1", "values": [{"measurement": "NICD levels in the brains", "setting": "ILEI-Tg mice [1]", "result": "no alteration"}, {"measurement": "decrease in APP-CTF levels in the brains", "setting": "ILEI-Tg mice [1]", "result": 30, "unit": "%"}, {"measurement": "development, fertility and gross morphology", "setting": "ILEI-Tg mice [2]", "result": "normal development and fertility without any gross morphological defect"}, {"measurement": "Aβ40 level in brain homogenates", "setting": "ILEI-Tg mice [3]", "result": "significantly reduced"}, {"measurement": "Aβ42 level in brain homogenates", "setting": "ILEI-Tg mice [3]", "result": "significantly reduced"}, {"measurement": "NICD production (Notch cleavage by γ-secretase)", "setting": "endogenous Notch-1", "result": "does not perturb Notch cleavage"}]}
{"molecule": "B2", "values": [{"measurement": "Aβ secretion", "setting": "[4]; at a concentration of 7 μg ml^−1", "result": "decreased to almost the same extent as in the case of introducing siRNA-resistant ILEI cDNA"}, {"measurement": "Aβ secretion", "setting": "[4]; purified protein added to the culture solution at the indicated concentrations (μg ml^−1)", "result": "diminished Aβ secretion in a dose-dependent manner"}]}
